T1: Cre recombinase monomer with K201Q mutation
T1 chain: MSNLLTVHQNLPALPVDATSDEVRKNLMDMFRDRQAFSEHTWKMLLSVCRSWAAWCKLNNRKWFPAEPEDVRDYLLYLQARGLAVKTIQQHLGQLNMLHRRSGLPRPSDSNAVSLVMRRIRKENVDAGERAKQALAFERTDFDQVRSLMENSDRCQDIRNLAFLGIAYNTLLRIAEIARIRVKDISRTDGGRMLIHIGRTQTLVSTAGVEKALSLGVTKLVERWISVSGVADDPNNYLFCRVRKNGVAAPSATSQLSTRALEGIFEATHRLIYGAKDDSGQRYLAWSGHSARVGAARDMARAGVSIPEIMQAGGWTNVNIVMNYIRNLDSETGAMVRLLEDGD

T2: Cre recombinase monomer with E176M mutation
T2 chain: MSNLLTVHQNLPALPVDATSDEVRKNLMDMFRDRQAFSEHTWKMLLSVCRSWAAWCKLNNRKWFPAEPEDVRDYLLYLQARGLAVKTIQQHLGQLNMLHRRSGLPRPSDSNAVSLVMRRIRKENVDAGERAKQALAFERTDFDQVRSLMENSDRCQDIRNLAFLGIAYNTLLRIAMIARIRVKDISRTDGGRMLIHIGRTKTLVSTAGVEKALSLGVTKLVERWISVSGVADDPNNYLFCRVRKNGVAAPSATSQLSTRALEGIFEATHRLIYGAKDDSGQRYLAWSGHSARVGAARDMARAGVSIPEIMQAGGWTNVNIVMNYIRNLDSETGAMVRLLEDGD

T3: Cre recombinase monomer with E176W mutation
T3 chain: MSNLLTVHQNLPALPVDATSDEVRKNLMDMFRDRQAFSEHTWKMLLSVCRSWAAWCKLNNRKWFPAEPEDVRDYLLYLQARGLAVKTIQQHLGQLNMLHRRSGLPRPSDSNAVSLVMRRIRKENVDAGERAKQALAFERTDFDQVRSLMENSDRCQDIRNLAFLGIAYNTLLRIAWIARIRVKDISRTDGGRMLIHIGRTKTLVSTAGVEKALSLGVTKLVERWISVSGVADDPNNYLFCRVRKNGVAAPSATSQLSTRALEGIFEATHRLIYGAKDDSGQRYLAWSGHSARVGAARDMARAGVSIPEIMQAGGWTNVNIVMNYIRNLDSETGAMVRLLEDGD

T4: Cre recombinase monomer with E176Y mutation
T4 chain: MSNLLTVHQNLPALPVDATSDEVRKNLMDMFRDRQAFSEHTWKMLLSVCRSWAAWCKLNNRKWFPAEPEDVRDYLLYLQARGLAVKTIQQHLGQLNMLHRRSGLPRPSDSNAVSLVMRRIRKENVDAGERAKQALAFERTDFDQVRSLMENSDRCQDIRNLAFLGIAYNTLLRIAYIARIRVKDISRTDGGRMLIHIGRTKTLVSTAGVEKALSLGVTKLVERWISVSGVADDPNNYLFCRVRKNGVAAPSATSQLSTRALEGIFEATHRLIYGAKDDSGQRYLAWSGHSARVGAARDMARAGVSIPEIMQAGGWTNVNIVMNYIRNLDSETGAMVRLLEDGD

T5: Cre recombinase monomer with E176V mutation
T5 chain: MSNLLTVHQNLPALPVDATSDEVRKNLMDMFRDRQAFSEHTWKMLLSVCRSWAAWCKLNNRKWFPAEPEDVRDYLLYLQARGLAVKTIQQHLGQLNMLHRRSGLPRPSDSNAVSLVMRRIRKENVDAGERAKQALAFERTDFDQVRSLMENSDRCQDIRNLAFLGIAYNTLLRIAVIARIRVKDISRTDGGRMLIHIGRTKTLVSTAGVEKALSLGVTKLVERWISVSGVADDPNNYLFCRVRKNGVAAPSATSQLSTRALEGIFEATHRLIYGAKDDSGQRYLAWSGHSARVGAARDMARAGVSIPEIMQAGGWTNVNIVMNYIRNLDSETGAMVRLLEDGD

T6: Cre recombinase monomer with E176I mutation
T6 chain: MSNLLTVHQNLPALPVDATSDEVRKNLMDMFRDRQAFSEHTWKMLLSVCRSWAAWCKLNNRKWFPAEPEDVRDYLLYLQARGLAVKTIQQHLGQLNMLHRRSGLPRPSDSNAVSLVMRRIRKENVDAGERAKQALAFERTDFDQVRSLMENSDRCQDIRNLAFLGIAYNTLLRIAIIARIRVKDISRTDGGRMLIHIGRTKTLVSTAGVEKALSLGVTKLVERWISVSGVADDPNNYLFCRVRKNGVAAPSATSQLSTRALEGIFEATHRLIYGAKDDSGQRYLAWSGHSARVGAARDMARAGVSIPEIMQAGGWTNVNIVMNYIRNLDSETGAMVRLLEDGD

T7: Cre recombinase monomer with Q311R mutation
T7 chain: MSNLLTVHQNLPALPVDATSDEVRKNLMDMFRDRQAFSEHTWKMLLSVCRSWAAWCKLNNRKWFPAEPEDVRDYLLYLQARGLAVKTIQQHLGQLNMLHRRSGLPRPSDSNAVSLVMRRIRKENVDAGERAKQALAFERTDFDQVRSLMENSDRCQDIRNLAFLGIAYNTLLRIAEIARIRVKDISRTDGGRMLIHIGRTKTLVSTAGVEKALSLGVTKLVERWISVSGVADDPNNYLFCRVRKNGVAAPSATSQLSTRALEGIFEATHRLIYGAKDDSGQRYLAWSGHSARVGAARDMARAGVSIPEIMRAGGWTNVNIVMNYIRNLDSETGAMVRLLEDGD

T8: Cre recombinase monomer with K201Y mutation
T8 chain: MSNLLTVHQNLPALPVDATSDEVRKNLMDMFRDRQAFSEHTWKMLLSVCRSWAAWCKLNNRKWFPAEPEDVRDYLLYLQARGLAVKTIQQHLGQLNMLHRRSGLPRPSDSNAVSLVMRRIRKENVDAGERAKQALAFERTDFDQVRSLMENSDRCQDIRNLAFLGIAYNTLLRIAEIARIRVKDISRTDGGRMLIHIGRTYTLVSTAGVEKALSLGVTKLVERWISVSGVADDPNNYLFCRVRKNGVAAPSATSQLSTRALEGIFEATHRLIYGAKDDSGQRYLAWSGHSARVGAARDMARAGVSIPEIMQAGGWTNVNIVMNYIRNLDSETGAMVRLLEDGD

T9: Cre recombinase monomer with Y324T mutation
T9 chain: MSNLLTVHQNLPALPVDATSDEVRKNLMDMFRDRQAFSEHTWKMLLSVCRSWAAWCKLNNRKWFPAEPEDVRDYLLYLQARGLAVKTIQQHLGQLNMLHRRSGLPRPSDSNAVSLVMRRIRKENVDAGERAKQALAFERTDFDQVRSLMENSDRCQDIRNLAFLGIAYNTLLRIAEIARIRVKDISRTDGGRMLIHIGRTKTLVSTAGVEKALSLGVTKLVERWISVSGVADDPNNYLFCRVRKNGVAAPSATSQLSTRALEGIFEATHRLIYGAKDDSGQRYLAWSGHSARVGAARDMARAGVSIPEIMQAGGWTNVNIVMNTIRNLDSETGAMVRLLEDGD

T10: Cre recombinase monomer with W315M mutation
T10 chain: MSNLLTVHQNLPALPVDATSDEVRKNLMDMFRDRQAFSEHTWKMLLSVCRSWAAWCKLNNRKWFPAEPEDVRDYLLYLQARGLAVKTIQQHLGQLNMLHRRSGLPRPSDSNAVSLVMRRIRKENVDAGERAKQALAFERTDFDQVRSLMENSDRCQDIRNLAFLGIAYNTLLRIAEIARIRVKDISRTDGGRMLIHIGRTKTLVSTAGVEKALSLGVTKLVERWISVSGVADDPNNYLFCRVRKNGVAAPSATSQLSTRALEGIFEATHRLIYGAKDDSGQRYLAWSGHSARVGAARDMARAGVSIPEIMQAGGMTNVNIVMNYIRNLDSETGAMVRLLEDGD

T11: Cre recombinase monomer with K201F mutation
T11 chain: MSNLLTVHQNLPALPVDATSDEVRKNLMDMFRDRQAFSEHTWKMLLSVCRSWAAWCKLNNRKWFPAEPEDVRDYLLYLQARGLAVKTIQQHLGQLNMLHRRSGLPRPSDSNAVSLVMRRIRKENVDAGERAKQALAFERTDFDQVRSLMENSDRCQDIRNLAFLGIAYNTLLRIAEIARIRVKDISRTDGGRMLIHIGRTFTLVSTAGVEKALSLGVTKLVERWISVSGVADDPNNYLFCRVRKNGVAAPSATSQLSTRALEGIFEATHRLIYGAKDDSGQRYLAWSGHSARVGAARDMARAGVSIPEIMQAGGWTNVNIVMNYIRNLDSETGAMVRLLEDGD

T12: Cre recombinase monomer with Y324N mutation
T12 chain: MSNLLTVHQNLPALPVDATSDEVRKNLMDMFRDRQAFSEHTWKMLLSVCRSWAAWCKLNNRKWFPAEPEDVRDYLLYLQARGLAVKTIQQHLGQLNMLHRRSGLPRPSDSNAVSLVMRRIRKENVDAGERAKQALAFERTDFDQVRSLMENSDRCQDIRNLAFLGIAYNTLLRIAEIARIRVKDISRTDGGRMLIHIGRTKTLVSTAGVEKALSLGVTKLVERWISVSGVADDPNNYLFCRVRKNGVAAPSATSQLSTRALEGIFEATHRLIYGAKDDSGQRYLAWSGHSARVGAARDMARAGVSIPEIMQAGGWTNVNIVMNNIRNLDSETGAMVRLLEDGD

T13: Cre recombinase monomer with E176H mutation
T13 chain: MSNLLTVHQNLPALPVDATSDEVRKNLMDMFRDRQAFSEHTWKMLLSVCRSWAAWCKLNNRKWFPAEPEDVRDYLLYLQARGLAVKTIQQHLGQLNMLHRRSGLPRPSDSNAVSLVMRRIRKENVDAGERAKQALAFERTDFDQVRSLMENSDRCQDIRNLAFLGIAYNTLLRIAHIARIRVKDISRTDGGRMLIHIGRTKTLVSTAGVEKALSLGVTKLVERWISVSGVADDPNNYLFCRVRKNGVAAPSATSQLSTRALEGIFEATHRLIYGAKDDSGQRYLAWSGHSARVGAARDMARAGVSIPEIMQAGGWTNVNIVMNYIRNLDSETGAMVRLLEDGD


Tests used:
[1] = target: T1, Cre recombinase monomer with K201Q …
[2] = target: T2, Cre recombinase monomer with E176M …
[3] = target: T3, Cre recombinase monomer with E176W …
[4] = target: T4, Cre recombinase monomer with E176Y …
[5] = target: T5, Cre recombinase monomer with E176V …
[6] = target: T6, Cre recombinase monomer with E176I …
[7] = target: T7, Cre recombinase monomer with Q311R …
[8] = target: T8, Cre recombinase monomer with K201Y …
[9] = target: T9, Cre recombinase monomer with Y324T …
[10] = target: T10, Cre recombinase monomer with W315M …
[11] = target: T11, Cre recombinase monomer with K201F …
[12] = target: T12, Cre recombinase monomer with Y324N …
[13] = target: T13, Cre recombinase monomer with E176H …

Protein	Median dimer activity (recombination on loxP) [1] [%]	Median dimer activity (recombination on loxP) [2] [%]	Median dimer activity (recombination on loxP) [3] [%]	Median dimer activity (recombination on loxP) [4] [%]	Median dimer activity (recombination on loxP) [5] [%]	Median dimer activity (recombination on loxP) [6] [%]	Median dimer activity (recombination on loxP) [7] [%]	Median dimer activity (recombination on loxP) [8] [%]	Median dimer activity (recombination on loxP) [9] [%]	Median dimer activity (recombination on loxP) [10] [%]	Median dimer activity (recombination on loxP) [11] [%]	Median dimer activity (recombination on loxP) [12] [%]	Median dimer activity (recombination on loxP) [13] [%]
Cre recombinase monomer with R173F mutation (protein) MSNLLTVHQNLPALPVDATSDEVRKNLMDMFRDRQAFSEHTWKMLLSVCRSWAAWCKLNNRKWFPAEPEDVRDYLLYLQARGLAVKTIQQHLGQLNMLHRRSGLPRPSDSNAVSLVMRRIRKENVDAGERAKQALAFERTDFDQVRSLMENSDRCQDIRNLAFLGIAYNTLLFIAEIARIRVKDISRTDGGRMLIHIGRTKTLVSTAGVEKALSLGVTKLVERWISVSGVADDPNNYLFCRVRKNGVAAPSATSQLSTRALEGIFEATHRLIYGAKDDSGQRYLAWSGHSARVGAARDMARAGVSIPEIMQAGGWTNVNIVMNYIRNLDSETGAMVRLLEDGD	39	38	30	40	82	25	84	–	–	–	–	–	–
Cre recombinase monomer with R173G mutation (protein) MSNLLTVHQNLPALPVDATSDEVRKNLMDMFRDRQAFSEHTWKMLLSVCRSWAAWCKLNNRKWFPAEPEDVRDYLLYLQARGLAVKTIQQHLGQLNMLHRRSGLPRPSDSNAVSLVMRRIRKENVDAGERAKQALAFERTDFDQVRSLMENSDRCQDIRNLAFLGIAYNTLLGIAEIARIRVKDISRTDGGRMLIHIGRTKTLVSTAGVEKALSLGVTKLVERWISVSGVADDPNNYLFCRVRKNGVAAPSATSQLSTRALEGIFEATHRLIYGAKDDSGQRYLAWSGHSARVGAARDMARAGVSIPEIMQAGGWTNVNIVMNYIRNLDSETGAMVRLLEDGD	–	–	–	–	–	–	95	95	32	–	–	–	–
Cre recombinase monomer with R173L mutation (protein) MSNLLTVHQNLPALPVDATSDEVRKNLMDMFRDRQAFSEHTWKMLLSVCRSWAAWCKLNNRKWFPAEPEDVRDYLLYLQARGLAVKTIQQHLGQLNMLHRRSGLPRPSDSNAVSLVMRRIRKENVDAGERAKQALAFERTDFDQVRSLMENSDRCQDIRNLAFLGIAYNTLLLIAEIARIRVKDISRTDGGRMLIHIGRTKTLVSTAGVEKALSLGVTKLVERWISVSGVADDPNNYLFCRVRKNGVAAPSATSQLSTRALEGIFEATHRLIYGAKDDSGQRYLAWSGHSARVGAARDMARAGVSIPEIMQAGGWTNVNIVMNYIRNLDSETGAMVRLLEDGD	–	–	–	–	–	–	94	–	–	63	41	88	66
